Measurements from a protein production outcome set (Wang et al. 2014).

Experiment: label from the status in PepcDB records
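Further: failed if final PepcDB status was selected cloned or expressed and not failed if soluble or beyond.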

Sequence | protein production
MFKKKGCFMNQLEQKLEQDFGIVFSQKDLLETAFTHTSYANEHRLLNISHNERLEFLGDAALQLVISVYLYNRYPNKPEGEMSKMRSTIVREESLAGFTKACGFEQYIRLGKGEEKSGGRERATILGDLWEAFLGALYLDQGLPAVEKFLNQVMIPQVEKGNFDRVIDYKTALQERLQVNGKVDITYTVIDESGPAHAKEFTMQVAVDGKELSTGLGKSKKLAEQAAAKSALEQLGN | failed
MTIQQWLFSFKGRIGRRDFWIWIGLWFAGMLVLFSLAGKNLLDIQTAAFCLVCLLWPTAAVTVKRLHDRGRSGAWAFLMIVAWMLLAGNWAILPGVWQWAVGRFVPTLILVMMLIDLGAFVGTQGENKYGKDTQDVKYKADNKSSN | failed
MAYLEVLRYLYHKRPMGKVKPGLERISMLLSKLGNPHLEYKTIHIGGTNGKGSVANMVSNILVSQGYRVGSYYSPHLSTFRERIRLNEEYISEEDVVKIYETMEPILNELDKEEIFSPSFFEVVTAMAFLYFAEKNVDIAVLEVGLGGRLDATNVVFPLCSTIVTVDRDHEKTLGYTIEQIAWEKSGIIKERVPLVTGERKREALKVMEDVARKKSSRMYVIDKDFSVKVKSLKLHENRFDYCGENTFEDLVLTMNGPHQIENAGVALKTLEATGLPLSEKAIREGLKNAKNLGRFEILEKNGKMYILDGAHNPHGAESLVRSLKLYFNGEPLSLVIGILDDKNREDILRKYTGIFERVIVTRVPSPRMKDMNSLVDMAKKFFKNVEVIEDPLEAIESTERATVVTGSLFLVGYVREFLTTGKINEEWKL | not failed
MSSNECFKCGRSGHWARECPTGGGRGRGMRSRGRGFQFVSSSLPDICYRCGESGHLAKDCDLQEDACYNCGRGGHIAKDCKEPKREREQCCYNCGKPGHLARDCDHADEQKCYSCGEFGHIQKDCTKVKCYRCGETGHVAINCSKTSEVNCYRCGESGHLARECTIEATA | failed
MGVKVATSSTFHQWVAHPIVHHSSSLSQTLASSAVSSPSRRRIIGNDGRSSLSCRSVMQSQRLNPSSPFGTSSTNLRHSKSCELWESTKRPKTQLIRRAFSANVDPFSEEEFAKKMQELTLKFQVSNEEEDNESDTRIDDYTRKMDIVGSHNNFRSDSMEPPWPEMVQMSNIERKANSVDLPLSLRIIKRKLQMEEGVLNQVGESACCSVKKAFSSMVFMIRELQSFTLHMRELLLFEDLQGILHRVRKEMQASFVWLFQQVFSATPTLMVSVMILLANFTVYSIESNSALAAAVSPPTTLSFSFETTAEISETQETNQKFDSSMVKTFSVSSPYGKTSFVGGGGGNNIPPPVQSGTDGDGSDQFRKSQFSSSSLGATSADSDVSVSGQEEIRLWNSILEETAKMETLDHETMKGMVSPVEARLEAEESMDYFKTELLYQTGLSQEPGNVLLLANYAQFLYLIIHDYDRAEKYFKRAAKAEPADAEALNKYATFLWRARNDIWRAEETYLEAISADPTNSVYSANYAHFLWNTGGDETCFPLDAPSQQNNTT | failed
LPSFRHKVFALVLVGVFVGLGAYLVYMSKAYSYLSDDPRVCINCHVMGPYYATWQHSSHAMRATCNDCHVPHNSIFSKYYFKASDGLRHSYVFTMRNEPQRMQAISASQAVIYDNCVRCHAQLNQEFVRTGMLTRADIRTAEEKACWDCHRDVPHGGKNS | failed
HARPAGQLKVHSMPGVGQHYVIDAIARYRRNHPDVAFDLTMTHRVPDLLEEGFDVSIVLASELADSGFVSQRLGITYSIVCASPEYVKTFGMAHKPADLLNHACLRLVSPVFP | failed
MSDILYSLLISAFLGLAHGLDADHIANVRIFKSVKKIFEFSLFHSAGFLIIAIPLSLLSLVTILEFPLLITSYSIGLLVSGLLLYGTVKGKELEIEPKRFGLLQGALVISPSKLIVLILALASESIFYAVLILLVFIVTSIISFMIFSLLNLIPKRFDKIVNIVISLGSIIYILYELITTLMSMH | failed
MTDLPPPFTTLAAAHRVDAVIDHSEFLAFAERADSPEEALAHLAALRTRYPDATHHCWAYRIGAAYRFGDDGEPGGTAGAPILRAIEGQGVDHVMVVVVRYYGGVKLGTGGLVRAYGGVAAECLRTAPRLDVRPRRTLQVSVPFDHLSGLYHLLGTWDAARGEETYTGAGVTLPVEVYPEDVEAFQAALRDATRGSAVVEEEE | not failed
MAASSLATQPAMKLAPDDLDSITATTLGHYQQVAEDFREGTRDHDVSQNIDALLRHIQGSAPFTVLDFGCGPGRDLQAFTRLGHVAIGLDGCERFAQMAREDSGCEVWQQDFLKLDLPAERFDGIFANAVLFHIPRQELPRVLKQLHASLKDGGVLFSSNPRGDNQEGWNGPRYGAYHDLAAWQALLTDAGFVELEHYYRPAGLPREQQPWLASVWRKA | failed
MSLDGMPAKQQHNNTGESVELHFHYPIKGKQEPKNSHLVVLIEPKIEINKVIPESYQKEFEKSLFLQLSSFLERKGYSVSQFKDASEIPQDIKEKALLVLRMDGNVAILEDIVEESDALSEEKVIDMSSGYLNLNFVEPKSEDIIHSFGIDVSKIKAVIERVELRRTNSGGFVPKTFVHRIKETDHDQAIRKIMNQAYHKVMVHITKELSKKHMEHYEKVSSEMKKRKEGHHHHHH | not failed
DDNNAAEVDRQVAQDSAEPKTGENAAAGDSSSTNKNAEKIVAVDISAETEKTYLTHVANDMVIPAYADAAKQSDLLHDLAQKHCQKAPVSGDELQALRDQWLVLAQAWASAEMVNFGPATASMSNLYINYYPDERGLVHGGVADLITANPALTAEQLANESAVVQGIPGLEEALYANDSLDAGQCAYVMSASSALGTRLKDIEKNWQQNAIKLLAIDKTAESDQGLNQWFNSLLSLVETMKSNAIEQPLGLSGKAKGHLPAATAGQSRAIINAKLATLNKAMTDPVLTAILGSNNENTVADTLSTALADTTALLAQMPEDLATADKATQQELYDHLTNITRLIKSQLIPTLGIRVGFNSTDGD | not failed
KLLAEALELTEDQYVVSFQSQFGRAKWVTPSTQDLFGKLPKQGVTELDVFCPGFLADCLETMEEIALMGREQFYEAGGKSYRYIPCLNDNPDWIDALVALAEENLGSWR | failed
MKILAISGSARRNSTNTAMLQAVRAVAPGEIEISIFDGVGRLPVFSPDLEGESLPEVVRNLIDVIAQSDGVIIASPEYVRSIPGGLKNAIDWLVSGDDIVHKPIALLHASHRGDDMLAGLRTVLATITDRFAGDIFLRLPLMKLEPADVLKAVEAAENRSRVQAYLQAFSAYCMADSKTA | failed
MGILSGNPQDEPLHYGEVFSTWTYLSTNNGLINGYRSFINHTGDEDLKNLIDEAIQAMQDENHQLEELLRSNGVGLPPAPPDRPAARLDDIPVGARFNDPEISATISMDVAKGLVTCSQIIGQSIREDVALMFSQFHMAKVQFGGKMLKLNKNKGWLIPPPLHSDRPIKE | not failed
MMSYDAETGIAKVKCQSQSTCGACSARETCGTESLSELNGKRGEHIFTLETITPLRTDQMVEIGLEEKSMLFSALLMYIVQLFTLLVATLLSSYISENELIRAILIFMLTALSFVMVKRYTRKLGQQTEFQSVLLRVLF | failed
MSEREHWQRVYESKPSDAVSWFQAEATLSLDLIRRIGAPREAAIIDVGGGASTLVDGLLAEGFGDLTVLDLSDAALRVARNRLGARGEEVRWIAGDITGVDLPEATYDVWHDRAVFHFLTTAEARRAYVRQVMKAVRHGGHVIVATFAADGPTECSGLPVMRYDADELHAEFGSAFQLTEHRDEHHVTPAGRVQHFVYCHCLKRLLEHHHHHH | failed
MSDRLANQIAAGEVVQRPASVAKELIENALDAGASSIEVLLKDAGSTLVQVIDDGCGMGPGDAERCFERHATSKLRSVDDLERIRTLGFRGEALASIAAVAQVTLKTKRVEDDAGTLVRVEGGEQVEKRPCAIPNGTSVAVRNLFFNVPARRNFLKTPATELKHLTQTVQSLALANPDTAVRLEHDGHEHYDLPAAPDSDWHAATRARILGLFGGDHEDELVAVEDESSDLRLRGFVGAPSFHRKTRGEQFLFVNGRAVTDRYLSHAVKKAYGELVPDGAFPFFALFLAMNPERVDVNVHPQKEEVKFDDQSGIYGFLRSAVRRALGRVHVSPQMDDGDDEADNEEDSPGPESDGTGSGGHAVSGDGTSSPRPTPTSFQPQRSSGDATDSSGRSSSGPSPQSPKPRPENPSVSPGDQSDALYRRPDGGDESSPGDAPASPPHREGGSSSTSAADEAERSGRRPVWGLHDTYVVTPTETGMMLVDQRAAHLRVLYERARAHLRDQQGASQRLLFPHTVDLSPAEVELLDELRDDLDALGFELERLSGRTVSVRGVPADVPDGNEDTILEELLEQYRSAQDAVEDERREHLAKTMAQRSAVDRGQPLSEEERRALLDDLFDCEMPYADPTGTPTIVKLSMEELADRFGR | failed
MRQKELETADWQRNLKIAWIGTFFTGASFSIVMPFMALYVEELGVKGAMVEWYAGLSVALSALASALVSPVWGHLADRYGRKPMMIRASMVMTFTMGGLAFVPNVFWMLFLRILNGLFAGYVPNATALIASQAPQQRSGYALGTLSTGLTAGVLIGPLLGGAISEAFGMRGTFLLVGLILFICCLLTIFGLREDFQLIEKVEIMSFSQVFAKIPSKSLLIGLFVTSMIIQISAQSIAPILALYIRYLGQSDNILFYSGLIVSAMGFSSLLSTPYLGRLGDRIGNHRLLLMGLFYSFLLYFLCGFAGSALQLGLLRFAYGFGVGALTPSVNSLLTKMTPKEGISRIFSLNQSFSYIGQVLGPFVGSAVATGLGYRWVFFVTAAIVFGNFVCSLIIFRKSLGVKNIGES | failed
MLKSQEIRQKAPELDSLRLGSGWKSEELNKAQIIIESSFGHSHPGSAHLDTLVDEAFKSIDDNGGRGAKYFVTDICDGETQGHDGMNYSLASRDIMTNLMEIHVQATPFDAGIFIASCDKAVPAHLMAIARLDMPSILVPGGIMNAGPNMLTLEQIGTYNAQYERGEITKEQYEHYKQNACPSCGACSFMGTASTMQVMSEALGIALPGTALIPVTSKELKLAAKNAGKQILKLIELNIKPSEIMTKKAFENAIMVHAAIAGSSNCLLHIPAIAHELGMDIEPELFDEIHKKIPYILNIRPSGFYPGSYFWNAGGVPAIMEEIKEFLHLDVMTVTGKTLGENLEDLKNSGYYEEHDKLITSLGIKKEDVIRTKENPIQSQGAIAILKGNLAPGGAVVKHSAISKKLMQVVLKARVFNCEEDAIKSVLTKNIKPGDAVFVRYEGPKGSGMPEMFYTTEAIASDHELVDSTALITDGRFSGATRGPAIGHVSPEASEGGPIAFVQEGDLIKIDIPARKLDIIGTNGIEKSEKEIENILKERSQNWVKPAPRYTKGILGLYTRCASSPMKGGYME | failed
MEIGVVGKPNVGKSTFFSAATLVDVEIANYPFTTIEANVGVTYAITDHPCKELGCSPNPQNYEYRNGLALIPVKMVDVAGLVPGAHEGRGLGNKFLDDLRMASALIHVVDATGKTDPEGQPTDYHDPVEDIEFLEREIDYWIYGILSKGWDKFAKRIKLQKIKLESAIAEHLSGIGVNENDVWEAMHKLNLPEDPTKWSQDDLLAFASEIRRVNKPMVIAANKADAASDEQIKRLVREEEKRGYIVIPTSAAAELTLRKAAKAGFIEYIPGASEFKVLRDMSEKQKRALMVIKEKVLDRFGSTGVQEVINRVVFDLLKLIPVYPVHDENKLTDQFGNVLPHVFLMKKGSTPRDLAFKVHTDLGKGFLYAINARTKRRVGEDYELQFNDIVKIVSVTR | not failed
MILLKSLYKGFFAAMKEENFEARCYNREKGGCVLIKTMQYKKTMATVVALIVALLLFGLIYDLLGVQKNELAAQKSAQPKVKTARVVANGDILIHDILYMSARKADDTYDFTPYFEYVKDWISGADLAIGDYEGTISPDYPLAGYPLFNAPEEIAGALKNTGYDVVDLAHNHILDSQLDGALNTKKVFHQLGIDSIGIYDKDRSKESFLIKNVNGIKIAILGYSYGYNGMEATLSQEDYEKHMSDLDEAKIKKELQLAEKKADVTIVMPQMGTEYALEPTAEQKELYHKMIDWGADVVLGGHPHVIEPSETVIKGRQKKFIIYSMGNFISNQRLETVDDIWTERGLLMDLTFEKKDNKTKIKTVEAHPTMVLAKGKGIVGKEGFELYNYRTMVLEDFIKGGKYHDKIDEETKAKVALAYQEINDLVNLKW | failed
